Measurements reported in paper PMC548802.

Key:
[1] = biological target: tetranectin with substitution of threonine 149 with tyrosine (TN^T149Y) (human) (UniProt P05452); assay: ELISA
[2] = biological target: tetranectin in which lysine 148 was replaced with alanine (TN^K148A) (human) (UniProt P05452); assay: ELISA

| ELISA specific binding (OD 450, binding to BSA subtracted) [1] | ELISA specific binding (OD 450, binding to BSA subtracted) [2] | Substance |
| --- | --- | --- |
| 1.73 OD 450 | – | human plasminogen (natural protein) |
| 1.83 OD 450 | 0.06 OD 450 | recombinant human angiostatin containing kringle domains 1-4 (AST^K1-4) (domain or fragment) |
| 0.43 OD 450 | – | recombinant human angiostatin containing kringle domains 1-3 (AST^K1-3) (domain or fragment) |
